The target of test [1] is myostatin mature C-terminal dimer (purified from CHO cell conditioned medium) (UniProt O08689). In words: inhibition of labeled myostatin binding to Act RIIB-transfected COS-7 cells; reference: follistatin Ki of approximately 470 pM.
Test [2] addresses cell surface GDF-8 binding proteins on L6 myoblasts. Nature of the test: I-125 labeled GDF-8 receptor-ligand binding assay on myoblast cells.
The target of test [3] is myostatin mature C-terminal dimer (purified from CHO cell conditioned medium) (UniProt O08689). Nature of the test: inhibition of labeled myostatin binding to Act RIIB-transfected COS-7 cells.

pKd, pKi: −log10 of the molar value.

Chain of myostatin mature C-terminal dimer (purified from CHO cell conditioned medium) (O08689 268-376 limits assumed): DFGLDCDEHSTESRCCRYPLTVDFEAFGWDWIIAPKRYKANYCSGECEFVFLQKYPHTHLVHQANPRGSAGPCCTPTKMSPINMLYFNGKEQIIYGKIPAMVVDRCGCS
Chain of Recombinant human GDF-8 (rhGDF-8) homodimer (O14793 267-374): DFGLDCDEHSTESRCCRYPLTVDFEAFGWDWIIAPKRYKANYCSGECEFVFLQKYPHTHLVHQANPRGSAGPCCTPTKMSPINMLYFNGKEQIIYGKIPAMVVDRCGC

In test [1], “myostatin prodomain peptide (purified from CHO cell conditioned medium) (from UniProt O08689 25-267)” displayed a Ki, fold relative to the Ki of follistatin of 50 fold.
Usually pKd stands for the negative decadic logarithm of the Kd, by convention in mol/L. High values mean a small Kd, low ones a large Kd. In test [2], “Recombinant human GDF-8 (rhGDF-8) homodimer (from UniProt O14793 267-374) (ligand)” gave a pKd of 9.43.
The term pKi denotes −log10 of the Ki, conventionally taken in molar units. Read a low pKi as a large Ki. With follistatin, in test [3], the pKi is 9.33.

The record behind these values is patent publication US20110034372A1.
